Substitutions are numbered along the chain they refer to. Where two headings read alike, the source gives them in different places.
B1: NP-specific IgG clone other than the second most expanded clone (antibody, V domains shown)
VH: QVQLQQSDAELVKPGASVKISCKVSGYTFTDHTIHWMKQRPEQGLEWIGYIYPRDGSTKYNEKFKGKATLTADKSSSTAYMQLNSLTSEDSAVYFCARGGYYGFYYFDYWGQGTTLTVSS
VL: DIVLTQSPASLAVSLGQRATISCRASESVEYYGTSLMQWYQQKPGQPPKLLIYAASNVESGVPARFSGSGSGTDFSLNIHPVEEDDIAMYFCQQSWKVPYTFGGGTKLEIK
notes: also called one of the two NP-specific clones
B2: Rank2.4 (antibody, V domains shown)
VH: EVQLQQSGPELVKPGASVKMSCKASGYTFTDYNMHWVKQSHGKSLEWFGYIDPNNGGIRYNQLFKGKATLTVNKTSRIAYMELRSLTSEDSAVYYCAREGGYWYFDVWGTGTTVIVSS
VL: DIVMTQSHKFKSTPVGDRVSITCKASQDVSTAVAWYQQKPGQSPKLLIYWASTRHTGVPDRFTGSGSGTDYTLTISSVQAEDLALYYCQQHYSTPFTFGSGTKLEIK
B3: NP-specific, second most expanded IgG clone, most expanded antibody variant (antibody, V domains shown)
VH: B2 VH with F48I, D52N, I58T, R59S, L63K, T75S, R77S, I78T, I115T
VL: B2 VL with K11M, P14S
notes: also called second most expanded clone; previously tested variant
B4: third additionally expressed variant of the second most expanded IgG clone (single-reactive) (antibody, V domains shown)
VH: B2 VH with T30I, F48I, D52N, I58T, R59N, L63K, T75S, R77S, I78T, I115T
VL: B2 VL with K11M, P14S, K103E
notes: also called one of the three tested variants; single-reactive antibody
B5: Rank2.5 (antibody, V domains shown)
VH: B2 VH with F48I, D52N, I58S, L63K, V72G, T75S, R77S, I78T, I115T
VL: B2 VL with K11M, P14S, V33I

Key:
[1] = target: T1, LCMV clone 13 nucleocapsid protein (NP), purified recombinant (LCMV clone 13 (stand-in: strain …, UniProt P09992, strain)); assay: ELISA; settings: one partner purified
T1 construct: also called LCMV NP; viral NP protein

[2] = target: T1, LCMV clone 13 nucleocapsid protein …
[3] = target: T2, LCMV clone 13 nucleocapsid protein (NP), purified recombinant (Lymphocytic choriomeningitis virus …, UniProt P09992 1-558); assay: BLI
T2 chain: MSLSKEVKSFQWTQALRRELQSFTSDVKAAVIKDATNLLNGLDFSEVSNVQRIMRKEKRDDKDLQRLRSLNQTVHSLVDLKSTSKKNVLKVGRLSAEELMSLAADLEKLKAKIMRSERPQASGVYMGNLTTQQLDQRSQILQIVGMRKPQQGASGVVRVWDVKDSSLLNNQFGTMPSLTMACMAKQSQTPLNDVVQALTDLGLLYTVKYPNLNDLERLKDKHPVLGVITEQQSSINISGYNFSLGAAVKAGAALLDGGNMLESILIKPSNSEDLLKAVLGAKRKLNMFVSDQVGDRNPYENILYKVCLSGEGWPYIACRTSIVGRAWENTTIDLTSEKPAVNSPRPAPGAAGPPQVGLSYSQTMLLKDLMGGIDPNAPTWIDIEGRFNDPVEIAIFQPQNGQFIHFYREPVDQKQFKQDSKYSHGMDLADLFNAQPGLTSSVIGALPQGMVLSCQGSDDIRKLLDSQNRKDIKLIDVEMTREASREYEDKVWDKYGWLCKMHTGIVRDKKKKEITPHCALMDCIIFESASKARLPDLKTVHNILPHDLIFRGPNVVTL

| Binder | binding result [1] | binding result [2] | Kd [3] |
| --- | --- | --- | --- |
| B1 | binds | – | – |
| B2 | – | binds | – |
| B3 | binds | – | 470 nM |
| B4 | binds | – | 370 nM |
| B5 | – | binds | – |
